The text below walks through data of patent publication US20240270854A1 (Stanford University, published 2024).

For experiment [1], the target named is BMPR2 on skeletal stem cells. The experiment is described as follows: cell-based or functional assay.
Experiment [2] addresses BMPR1a on skeletal stem cells. The experiment is described as follows: cell-based or functional assay.

BMPR2 on skeletal stem cells, sequence (Q13873 whole entry): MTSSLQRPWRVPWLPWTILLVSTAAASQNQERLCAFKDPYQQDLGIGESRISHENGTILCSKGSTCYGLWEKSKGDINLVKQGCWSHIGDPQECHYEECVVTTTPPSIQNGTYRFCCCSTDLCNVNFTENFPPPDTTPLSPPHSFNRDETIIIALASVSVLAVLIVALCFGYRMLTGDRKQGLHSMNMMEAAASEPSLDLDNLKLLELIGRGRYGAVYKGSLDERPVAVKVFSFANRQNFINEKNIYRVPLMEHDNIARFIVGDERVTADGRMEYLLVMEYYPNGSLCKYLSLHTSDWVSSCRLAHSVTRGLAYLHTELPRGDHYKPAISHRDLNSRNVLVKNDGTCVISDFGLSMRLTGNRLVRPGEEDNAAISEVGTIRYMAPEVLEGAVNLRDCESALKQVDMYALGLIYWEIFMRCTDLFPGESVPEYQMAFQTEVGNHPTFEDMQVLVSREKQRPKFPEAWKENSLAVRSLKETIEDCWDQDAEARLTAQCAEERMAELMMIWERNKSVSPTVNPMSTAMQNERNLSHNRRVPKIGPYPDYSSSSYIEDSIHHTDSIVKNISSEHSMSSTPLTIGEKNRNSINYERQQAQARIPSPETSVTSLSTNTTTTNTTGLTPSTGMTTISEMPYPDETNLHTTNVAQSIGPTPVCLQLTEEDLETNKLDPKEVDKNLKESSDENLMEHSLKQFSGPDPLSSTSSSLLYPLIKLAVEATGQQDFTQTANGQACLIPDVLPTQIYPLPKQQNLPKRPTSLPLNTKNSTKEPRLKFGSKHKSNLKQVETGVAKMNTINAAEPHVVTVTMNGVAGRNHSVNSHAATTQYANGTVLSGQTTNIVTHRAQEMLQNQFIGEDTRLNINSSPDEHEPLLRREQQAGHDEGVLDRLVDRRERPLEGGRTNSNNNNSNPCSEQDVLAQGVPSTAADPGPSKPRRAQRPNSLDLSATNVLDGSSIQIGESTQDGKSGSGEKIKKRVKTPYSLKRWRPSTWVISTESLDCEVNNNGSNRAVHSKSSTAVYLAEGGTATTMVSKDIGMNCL
BMPR1a on skeletal stem cells, sequence (P36894 whole entry): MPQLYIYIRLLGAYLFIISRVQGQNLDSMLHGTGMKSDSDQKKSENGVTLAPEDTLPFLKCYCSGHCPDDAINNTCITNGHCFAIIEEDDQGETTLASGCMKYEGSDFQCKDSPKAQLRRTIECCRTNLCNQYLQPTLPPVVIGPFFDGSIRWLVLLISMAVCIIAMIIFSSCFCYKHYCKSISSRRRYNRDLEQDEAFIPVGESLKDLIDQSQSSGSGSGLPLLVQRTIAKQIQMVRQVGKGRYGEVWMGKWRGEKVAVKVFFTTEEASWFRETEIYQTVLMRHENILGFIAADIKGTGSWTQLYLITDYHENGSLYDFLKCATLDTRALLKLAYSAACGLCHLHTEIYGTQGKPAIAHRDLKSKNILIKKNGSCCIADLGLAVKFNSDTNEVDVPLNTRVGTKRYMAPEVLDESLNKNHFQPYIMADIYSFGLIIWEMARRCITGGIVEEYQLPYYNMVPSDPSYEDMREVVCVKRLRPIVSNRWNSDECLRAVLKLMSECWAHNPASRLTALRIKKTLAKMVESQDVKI

B1: (NB1-4)-(NB2-43) (bispecific antibody)
chain: QVQLQESGGGLVQAGGSLRLSCAASGTIFYFSIMGWYRQAPGKEREFVAGIGVGSNTYYADSVKGRFTISRDNAKNTVYLQMNSLKPEDTAVYYCAAFDSISGELQYWGQGTQVTVSSGGGGSGGGQVQLQESGGGLVQAGGSLRLSCAASGSISSATVMGWYRQAPGKEREFVAAITAGGTTNYADSVKGRFTISRDNAKNTVYLQMNSLKPEDTAVYYCAVVVFTSQDRIYYYRYWGQGTQVTVSS
In the case of B1, the “p-smad1/5 signaling in SSCs after 30 minutes treatment” value in experiment [1] and in experiment [2] was 3 folds higher activation than control in each case.
